A short description of the data set: soluble on expression in E. coli; label from the status in PepcDB or PDB records.
Turning to “PVLATQWNNYQQSRAAEAYSQLEKGVPPEVLNKAWEEAQQYNANLGDIDPGDAWTSSDDESSSAYQRYLNYLSALNETEAMGRIVLPSIKSDLPIFHGTSDRVLARGVGHLYGTDLPVGAPGELGEDGVIPPAPPEGRLS”, the “soluble on expression in E. coli” value is “not soluble”.

Consider “PYHGKSKPNKETFVCDLKTSLSNEAIGYIGKANTVGILLSGGMDSRVVAGVVRDLQKNNRSISVVGITWGNANSRDVIYSQRICQQFGWEFVHFPITAETLHKNIQLSAKMGAEVSALHFHAMSDVADLKGVDVILAGSYGDSVGRAEFSGKHVTKLSSVLPSRINNLGLIKDELFQSALESIRNDAQLPAFHNAGDNNLRKYEIEQECHYMRRMLQSCMHVVAEKIPFYQMFTAPSVFGLMWGLEPNIRNNDWYVELLNILPGQLLQIPWARTGILYHLPEGTADEFDKSYHQYGLWLKTELKDEMLNAMNSKSIRELGIFN”, for which the “soluble on expression in E. coli” value is recorded as “not soluble”.

“QDDSRYTKFLTQHHDAKPKGRDDRYCERMMKRRSLTSPCKDVNTFIHGNKSNIKAICGANGSPYRENLRMSKSPFQVTTCKHTGGSPRPPCQYRASAGFRHVVIACENGLPVHFDESFFSL”: the “soluble on expression in E. coli” value is recorded as “soluble”.

Regarding “QDFPQSLIIDSFLVNDGKTRGLNLHLDRFRTACLEHGYAHHEQLDAFFAEALRSIPATGQWFPRLEATPTELRIALRPAPQLRGTTTLTSVAAVRPTPKYKGLDLDYLAELRCSSTTDDALLVTPAGVIAETTTAAIIAWDGTKWMSMAPARLESVTESLLINSARAQGEMVVTAALTVPEAQKLNLWAVNSLHGVTPVTHIDEVALPSNPQRSALLRGWLSQSEENIAQV”, the “soluble on expression in E. coli” value is on record as “not soluble”.

Turning to “QELPTDLSEVFVDFSKEPLASGSVAQTHRARLLSGQEVIIKIQRPGIDDIVKEDIQLLIKLARHIPKHFISMVDVQEVLENLCETLIKELDFKNEAEAMKRFRANNKRVVCLGVPEVY”, the “soluble on expression in E. coli” value is given as “not soluble”.

For “QINPAARKELVIENDIETMHPVFKGFKDKLVPHLRMAAQGATLTGVNVPIGDKVFRWNLSPIRVDGDISGIIVQGQDITTLIEAEKQSNLARREAEKSAQARADFLAKMSHEIRTPINGILGVAQLLKDSVEAEEQKNQIDVLRHSGEHLLAVLNDILDFSKIEQGKFNIQKHPFSFADTMRTLENIYRPICENKGVELVIENQLDGNVEIFTDQVRLNQILFNLVSNAVKFTPSGCVRLHAELEQFYGADNSVLVVEISDTGIGIESDKLDEMFEPFVQEEATTTR”, the “soluble on expression in E. coli” value is given as “not soluble”.

“QKFIARNRAPRVQIEYDVELYGAEKKVQLPFVMGVMADLAGKPAEPQAAVADRKFLEIDVDNFDARLKAMKPRVAFNVPNVLTGEGNLSLDITFESMDDFSPAAVARKVDSLNKLLEARTQLANLLTYMDGKTGAEEMIMKAIKDPALLQALASAPKPK”: the “soluble on expression in E. coli” value is recorded as “not soluble”.

Regarding “QLNQILRAANLHSFAVANLRQVEHATRPTKTMSAGLTIINVPAFYSSQHQLQKQYWTQLQHLIKQTKPTTDLILNFAANTGGSSAPMIAGLAAIIPDGTIYTGITNHHRNRPRMMYHGRITGGLGQDDVNFSQPTAAHFRHIYAIIGNQTASAAEVTIMALKRNPHVTLVGRSSAGYTSLNGGVFLNTAVAVMTIGTLKATVKIHGQQYFNNQPLKPDIPTLYQPLAPLQLGQSPHLDADFLSELRTIMKHYH”, the “soluble on expression in E. coli” value is reported as “not soluble”.

Consider “QLPTIYAITPTYSRPVQKAELTRLANTFRQVAQLHWILVEDAAARSELVSRFLARAGLPSTHLHVPTPRRYKRPGLPRATEQRNAGLAWLRQRHQHQRAQPGVLFFADDDNTYSLELFQEMRTTRKVSVWPVGLVGGRRYERPLVENGKVVGWYTGWRADRPFAIDMAGFAVSLQVILSNPKAVFKRRGSQPGMQESDFLKQITTVEELEPKANNCTKVLVWHTRTEKVNLANEPKYHLDTVKIEV”, for which the “soluble on expression in E. coli” value is “soluble”.

“QNNKDEKKITKIGVLQFVSHPSLDLIYKGIQDGLAEEGYKDDQVKIDFMNSEGDQSKVATMSKQLVANGNDLVVGIATPAAQGLASATKDLPVIMAAITDPIGANLVKDLKKPGGNVTGVSDHNPAQQQVELIKALTPNVKTIGALYSSSEDNSKTQVEEFKAYAEKAGLTVETFAVPSTNEIASTVTVMTSKVDAIWVPIDNTIASGFPTVVSSNQSSKKPIYPSATAMVEVGGLASVVIDQHDLGVATGKMIVQVLKGAKPADTPVNVFSTGKSVINKKIAQELGITIPESVLKEAGQVI”: the “soluble on expression in E. coli” value is on record as “not soluble”.

As for “QNPSIYCAGHGIYWVAYDMGTALSTGPVKVEAETSGDIDGRIYGIVLAAVYEDKEGQDTRYWVEEGNINLHDKGRSEEASSTHDEAYADFSGKVDVDRYKTANLAAVYLCGSPGLGDSLYFNDEQLSDGENSNDIANSKSYFDLKFFDVLDFLAEDDNELRFQRDDEDYLHPVFAALSLGTEEEGSSDLIVSGVTLPVLYAGQENIIKANIKNIGRDSAYGFQAALYADNEIVSTASVSSLSSGKSKTIDFNWKPGRSGEHVLKVSVDYTNRKKELCEINNWNIPFLANIIDLTPPEIEIDSPLDGSSVSSGYLKVSGTVEDTSRNTTVDVNGQKALLADKRWSADIPVAPGPNKIVVSAVDGTNNTGKEFILVTGISSGSGNNESFVSGGEREHVNRKVNAEPVSSTIPVYRSDI”, the “soluble on expression in E. coli” value is recorded as “not soluble”.

For “QRDDVTGVQTLAGNLDPTQWTKTKSLSPLSGSLDPLDYTQRLALIPQRHFSGAGDEMIPTELAERYNRLLGNTACSQLIIVAGATHETGWEEAWKVWRGL”, the “soluble on expression in E. coli” value is given as “not soluble”.

As for “QREIQGVRHFVADLSEAARLGLVPGEHYFCVSSIRVDRQHDGAPLCWTDVYAQRDYTAVIELAREHPDQLIAGLIEQHYGRAIAVVDQQVRAVLLTAEMARALKAEAGSPGLKIIRHYREENGDLMAVSETVHPDDRFT”, the “soluble on expression in E. coli” value is recorded as “not soluble”.

As for “QRQPGHFCRSVLLAPVGAFLWQRSLPALMSPLPIRKTIHWLLANKPKLFAHKFSRHAWPDSHYRRMGAGYARCRAFIPYWDMVRADTALPLLEWVQDPIELVWGDQDKVLGIDQAAAWSAILARADLTISLKPGWGHYPWIDSPAEFAQWLES”, the “soluble on expression in E. coli” value is on record as “not soluble”.

As for “QSKDGSVRHSGDNRTGQGDGDDETITVDLTRLPAAVTTVIFSVNNYTGQDFGQVENAYCRLVNTQGGQEIARYNLSVQGNHSAMILASLKRQGGDWAMTAIGAPSR”, the “soluble on expression in E. coli” value was “not soluble”.

With “QSNAIWGLDRIDQRNLPLDRNYNANFDGFGVTAYVIDTGVNNNHEEFGGRSVSGYDFVDNDADSSDCNGHGTHVAGTIGGSQYGVAKNVNIVGVRVLSCSGSGTTSGVISGVDWVAQNASGPSVANMSLGGGQSTALDSAVQGAIQSGVSFMLAAGNSNADACNTSPARVPSGVTVGSTTSSDSRSSFSNWGSCVDLFAPGSQIKSAWYDGGYKTISGTSMATPHVAGVAALYLQENNGLTPLQLTGLLNSRASENKVSDTRGTTNKLLYSLADSGCEPDCGGP”, the “soluble on expression in E. coli” value is given as “soluble”.

As to “QTVAIKMGADNGMLAFEPSTIEIQAGDTVQWVNNKLAPHNVVVEGQPELSHKDLAFSPGETFEATFSEPGTYTYYCEPHRGAGMVGKIVVQ”, the “soluble on expression in E. coli” value is reported as “soluble”.

In the case of “QTVIKGLVLAADNEAPVSYASIYVAETKSGVVADESGRFILRLHPGRYRLAIRSMGYTPLETELLVGEKSEEKTFRLSSVIYDLKEVEVIGKRPKEDPAYPIMRELIARTPVYEHMVKSYQAKVYTKGSMRLDKLPFWLRYKKADGISAKDLEKKRFVIESQASLEFRHPNKYNKQVRAMRSSIPDDLKSDTTDYMQIISTNIYAKEFSLDGIVNMASPIRTGVLESYTYKLEGTSREKERKVYHISFKGRRDAMRGELWVIDSIWCLQALKLEIKAYDMIRYKVDISLNPLEKDVYLPTTYAIGMEMQSMGLKLEYQYFSSLVYDSLEIDRKLLSTARRAEGLRFRTNREVNRHLRMLESRLDTLGYHLPDKYMLPDTELQAKVRFDSLAFDRDSSYWDAVVTAPLTDEEAQSYANRDSLMQAFEKKRRFGGGREGERTGRTSILGAILGGHDYKMGEGTTLGFNGLIRGSLYDYRYTDGFWLGQSFFFRQKFSKGVDLTLRPILYYTTHRRKLYWDVRADFRYAPLSGGLLSLSAGRQSADLTGPFANTDWRIQTFLTTLVDGRGHLMLYDKKYLRLSNQIDLLPGLQLFLFAEGRHSSPLAENRVWGIFKKPIKNKLIGGIASSPDSLLYSMPDHRSLTVGGSIRYNPAPYYRLDKDGRKRYDGVGTRAPLFGLTYRQAIPLGREHDSDYIYLSGSVRQNLRLNPLHSLYYHFTVGSYFRRHTVHLDEQRYLKADNALFQIGGTLHDSFQTLPPYSYTDQNFLILQTR”, the “soluble on expression in E. coli” value is recorded as “not soluble”.

“QVQLQQSGAELVRPGVSVKISCKGSGYTFTDYGMHWVKQSHAKSLEWIGIISTYSGDASYNQKFKGKATMTVDKSSSTAYMELARLTSEDSAIYYCARSSTWYYFDYWGQGTTLTVSSAKTTAPSVYPLAPVCGDTTGSSVTLGCLVKGYFPEPVTLTWNSGSLSSGVHTFPAVLQSDLYTLSSSVTVTSSTWPSQSITCNVAHPASSTKVDKKIEPR”: the “soluble on expression in E. coli” value is recorded as “soluble”.

With “QVQLQQSGPELVRPGVSVKISCKGSGYTFIDEALHWVKQSHAESLEWIGVIRPYSGETNYNQKFKDKATMTVDISSSTAYLELARLTSEDSAIYYCARDWERGDFFDYWGQGTLVTVSSASTKGPSVFPLAPSSKSTSGGTAALGCLVKDYFPEPVTVSWNSGALTSGVHTFPAVLQSSGLYSLSSVVTVPSSSLGTQTYICNVNHKPSNTKVDKKVEPKSCD”, the “soluble on expression in E. coli” value is listed as “soluble”.

On to “QVQLQQSGTELVKSGASVKLSCTASGFNIKDTHMNWVKQRPEQGLEWIGRIDPANGNIQYDPKFRGKATITADTSSNTAYLQLSLTSEDTAVYYCATKVIYYQGRGAMDYWGQGTTLTVS”, for which the “soluble on expression in E. coli” value is reported as “soluble”.

As to “QVQLVQSGGGLVKPGGSLRLSCAASGFTFSSYAMSWVRQAPGKGLEWVSAISGSGGSTYYADSVKGRFTISRDNSKNTLYLQMSSLRAEDTAVYYCARPYLTYPQRRGPQNVSPFDNWGQGTMVTVSSASTKGPSVFPLAPSSKSTSGGTAALGCLVKDYFPEPVTVSWNSGALTSGVHTFPAVLQSSGLYSLSSVVTVPSSSLGTQTYICNVNHKPSNTKVDKKVEPKSCAAAHHHHHHGAAEQKLISEEDLNGAA”, the “soluble on expression in E. coli” value is “soluble”.

Take “RALEDEDMRKVFSRLSKSSTIPSDLRRTKELFILMFLLRGLPFVDLAYLRKSDLRGNVITYRRRKTGRSLSVTLTPESMLLLEKHISRDLSSPYLFPILHSIEGSQEAYREYQLALRSFNQHLELLGQWLGLESKLSSYTARHTWATTAYYCEIHPGIISEAMGHSSITVTETYLKPFRNRKIDEAN”: the “soluble on expression in E. coli” value is “not soluble”.

“RDLAVAILMDCSRSTEASVGERTVIDTAREALAALAAGIDVAGDRQAIWGFSSLRRDRVFLHLCKRFDEPMGPAVTARIGGLRPGHYTRLGAAIRHASARLNEEAASRKLLLVLTDGKPNDLDHYEGVHGIEDSRMAVREARALSQAVHGVVIDADGQDWFARIFGRAGFTLLPEPARLARALPDLYRSLTQEI”: the “soluble on expression in E. coli” value is on record as “not soluble”.

Regarding “RELIHFAHGNGFPSLCYKQLLEQLETRFDCCFIDKIGHDPDYPVGENWHNLVAEIIASIKRQAEQPVIAVGHSLGGVLSLLAAIEQPKLFKAVIMLDSPLIGAFKSSMVRLAKALGIIDRVTPAFRTKKRREHWQNYEQLISYLKTRDLFKTFTEECLNDYIKYGLQYKEDGYYLRFDRHVEYQIYRTIPHVIPRYKGKLIVPAALIYGDKSTVVDRMDIRYMKNHFNVKCFKTMGTHLFPMEHPKAVGKQVIEVIDAII”, the “soluble on expression in E. coli” value is on record as “not soluble”.

Source of the values: the DeepSol protein solubility set.
